Values of other authors as cited in patent US9205345B2, “Spray-drying apparatus and methods of using the same” (Bend Research, Inc., priority 2010, dated 2015).

Experiments:
[1] = not given; remark: listed apart in the source
[2] = not given; remark: listed apart in the source

Compound	Log P	pKa [1]	solubility in water [2]
insulin [Active Agent 2]	0.22	5.39	–
Peptide YY (PYY) [Active Agent 3]	–	–	soluble in water
CC(C)(C)NCC(O)c1ccc(O)c(CO)c1 (centres unmarked) [Active Agent 1, 4-[2-(tert-butylamino)-1-hydroxyethyl]-2-(hydroxymethyl)phenol, reference compound]	0.11	–	freely soluble in water
